Assay results published in patent US20090142346A1 (Takeda / Millennium, published 2009).
Changes are numbered by the printed parent chain.

Assays:
[1] = target: T1, nectin-2 Ig2 domain-deficient protein (human, UniProt Q92692 32-538); test: FCM
T1 construct: also called delta-Ig2; Nectin-2ΔIg2
T1 sequence: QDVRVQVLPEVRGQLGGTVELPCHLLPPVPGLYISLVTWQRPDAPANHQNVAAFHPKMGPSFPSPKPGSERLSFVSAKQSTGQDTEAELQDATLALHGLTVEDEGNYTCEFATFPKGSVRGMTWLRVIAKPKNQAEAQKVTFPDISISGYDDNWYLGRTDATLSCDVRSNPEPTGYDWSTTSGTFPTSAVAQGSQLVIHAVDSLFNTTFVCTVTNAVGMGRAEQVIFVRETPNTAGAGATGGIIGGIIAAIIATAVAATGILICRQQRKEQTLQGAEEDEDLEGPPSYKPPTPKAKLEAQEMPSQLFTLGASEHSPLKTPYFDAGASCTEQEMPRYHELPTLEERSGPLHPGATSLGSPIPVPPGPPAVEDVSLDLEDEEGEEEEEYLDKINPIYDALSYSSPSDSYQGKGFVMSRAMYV
Procedure: After 200 μL of FCM buffer was added to each well and washed once by centrifugal operation, 50 μL each of Alexa488-labeled secondary antibody diluted in FCM buffer to 10 μg/mL was added to and mixed therewith, and the mixture was then reacted on ice for an hour. The Alexa488-labeled secondary antibody used was Alexa Fluor488 goat anti-human IgG (H+L) for the human antibodies and Alexa Fluor488 goat anti-rabbit IgG (H+L) (Invitrogen) for the rabbit antibody. The cells in each well were washed twice with FCM buffer and then resuspended in 250 μL of FCM buffer. Using the flow cytometer MPL500 (BECKMAN COULTER), the fluorescence intensity of stained cells was measured to determine the ratio of the median value of fluorescence intensities of the respective antibodies in the primary antibody group to the median value of fluorescence intensities in the negative control group.

human nectin-2δ protein = target: T2, human nectin-2δ protein (human, UniProt Q92692 32-538); test: FCM, CHO-K1 transient
T2 construct: full length, stably on CHO-K1 (43-2) or transiently on CHO-K1 from pEE12.4-Nectin-2δ
T2 sequence: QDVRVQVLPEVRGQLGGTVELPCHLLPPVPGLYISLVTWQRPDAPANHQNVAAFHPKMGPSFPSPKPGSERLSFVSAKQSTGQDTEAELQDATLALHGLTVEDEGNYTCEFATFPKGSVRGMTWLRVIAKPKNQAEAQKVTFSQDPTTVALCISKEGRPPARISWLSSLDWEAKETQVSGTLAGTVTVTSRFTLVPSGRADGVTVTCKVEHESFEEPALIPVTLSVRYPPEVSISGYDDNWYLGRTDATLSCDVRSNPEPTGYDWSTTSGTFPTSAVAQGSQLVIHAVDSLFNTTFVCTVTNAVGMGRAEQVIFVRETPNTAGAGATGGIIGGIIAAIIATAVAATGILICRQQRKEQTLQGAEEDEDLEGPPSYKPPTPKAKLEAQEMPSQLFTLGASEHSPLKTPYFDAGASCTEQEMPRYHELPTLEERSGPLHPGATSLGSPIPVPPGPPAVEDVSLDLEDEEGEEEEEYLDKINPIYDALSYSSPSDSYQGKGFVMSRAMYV
Procedure: (§1) A ratio of the median value of fluorescence intensities of negative control plasmid pcDNA3.1(+)-transfected CHO-K1 cells to the median value of fluorescence intensities of each gene-transfected CHO-K1 cells was calculated for each antibody.
(§2) Then, after 200 μL of FCM buffer was added to each well and washed once by centrifugal operation, 50 μL each of Alexa488-labeled secondary antibody diluted in FCM buffer to 10 μg/mL was added thereto for suspension, and the mixture was then reacted on ice for an hour. As secondary antibodies, Alexa Fluor488 goat anti-human IgG (H+L) was used for the human antibodies and Alexa Fluor488 goat anti-rabbit IgG (H+L) (Invitrogen) was used for the rabbit antibody, respectively. Next, the cells were washed twice with FCM buffer and then resuspended in 250 μL of FCM buffer.

[2] = target: T3, cynomolgus monkey nectin-2 protein (cynomolgus monkey, UniProt Q92692 32-538 (human entry)); test: FCM, CHO-K1 transient
T3 construct: transient on CHO-K1; also called maNectin-2
T3 chain: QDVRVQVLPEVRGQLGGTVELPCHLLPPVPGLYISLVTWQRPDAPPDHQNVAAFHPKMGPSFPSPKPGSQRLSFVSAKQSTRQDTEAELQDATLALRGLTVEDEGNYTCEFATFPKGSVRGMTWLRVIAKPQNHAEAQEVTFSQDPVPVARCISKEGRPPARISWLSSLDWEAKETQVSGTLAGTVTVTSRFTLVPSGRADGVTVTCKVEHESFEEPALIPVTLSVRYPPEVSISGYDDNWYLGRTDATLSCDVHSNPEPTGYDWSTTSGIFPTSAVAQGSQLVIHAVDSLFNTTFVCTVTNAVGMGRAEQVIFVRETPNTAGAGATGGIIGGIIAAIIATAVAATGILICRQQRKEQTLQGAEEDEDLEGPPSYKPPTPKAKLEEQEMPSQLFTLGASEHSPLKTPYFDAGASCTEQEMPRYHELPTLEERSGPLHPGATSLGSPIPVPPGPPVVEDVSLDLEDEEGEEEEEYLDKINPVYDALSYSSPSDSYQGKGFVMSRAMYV
Procedure: as §1, §2

[3] = target: T4, human nectin-2δ AN77-78PD (human, UniProt Q92692 32-538); test: FCM, CHO-K1 transient
T4 construct: transient on CHO-K1
T4 sequence: T2 sequence with A46P, N47D
Procedure: (§3) After these cells were further washed twice with FCM buffer and then resuspended in 250 μL of FCM buffer, fluorescence intensity of the stained cells was measured by the flow cytometer MPL500 (BECKMAN COULTER). A ratio of the median value of fluorescence intensities of negative control plasmid pcDNA3.1(+)-transfected CHO-K1 cells to the median value of fluorescence intensities of each gene-transfected CHO-K1 cells was calculated for each antibody.
(§4) Then, after 200 μL of FCM buffer was added to each well and washed once by centrifugal operation, 50 μL of Alexa Fluor488 goat anti-human IgG (H+L) diluted in FCM buffer to 10 μg/mL was added thereto for suspension, and the mixture was then reacted on ice for an hour. Next, the cells were washed twice with FCM buffer and resuspended in 250 μL of FCM buffer.

human nectin-2δ G113R = target: T5, human nectin-2δ G113R (human, UniProt Q92692 32-538); test: FCM, CHO-K1 transient
T5 construct: transient on CHO-K1
T5 sequence: T2 sequence with G82R
Procedure: as §3, §4

human nectin-2δ H128R = target: T6, human nectin-2δ H128R (human, UniProt Q92692 32-538); test: FCM, CHO-K1 transient
T6 construct: transient on CHO-K1
T6 sequence: T2 sequence with H97R
Procedure: as §3, §4

B1: Nec1-554-1 (antibody, human IgG1, V domains shown)
VH: EVQLVESGGGLVKPGGSLRLSCAASGFTFSSYNMNWVRQAPGKGLEWVSSISSSSSYIYYADSVKGRFTISRDNAKNSLYLQMNSLRAEDTAVYYCARDYYGSGTYYLFDYWGQGTLVTVSS
VL: EIVLTQSPDFQSVTPKEKVTITCRASQSIGSSLHWYQQKPDQSPKLLIKYASQSFSGVPSRFSGSGSGTDFTLTINSLEAEDAAAYYCHQSRSLPITFGQGTRLEIK
notes: human IgG1/k; also called Nec1-554-1 SP3
- binding result [1]: no binding (tested: ratio below 2 = no reactivity)
- median fluorescence ratio (human nectin-2δ protein): 43 ratio
- median fluorescence ratio [2]: 14.8 ratio
- median fluorescence ratio [3]: 44.2 ratio
- median fluorescence ratio (human nectin-2δ G113R): 38.7 ratio
- median fluorescence ratio (human nectin-2δ H128R): 51.5 ratio
